Experimental data published in patent publication US20120121533, “NUCLEIC ACID LIGANDS TO LL37” (BIOTEX, INC., published 2012).

Target: T1, LL37 (human cathelicidin peptide LL-37) (Homo sapiens, UniProt P49913 P49913:134-170)
T1 chain: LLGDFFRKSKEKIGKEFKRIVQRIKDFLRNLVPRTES
Experiment: SPR; biotinylated aptamer immobilised, increasing LL37 added; nonsense DNA on reference channel
Details: label: biotin (immobilised on neutravidin SPR chip)
Description: Aptamers were immobilized to the test channel of a neutravidin-coated SPR chip via standard biotin modification. A nonsense DNA was immobilized on the reference channel to identically match the electrostatic conditions of each channel, and then increasing concentrations of target protein LL37 were added such that no regeneration steps are required. The differential response to each dose was extracted and fit to a binding isotherm model to accurately determine Kd.

B1: SEQ7 (Apta#222) (ssDNA)
DNA: ACTGGGTCTCACCATCGAAAATCGAAATGACTAAAAGGCC
Kd: 0.118 µM
